{"source": "patent US5013542A", "about": "“Method to inhibit adhesion of disease-causing microorganisms to teeth” (Forsyth Dental Infirmary for Children, priority 1988, dated 1991)", "molecules": {"B1": {"name": "PRP-1: acidic proline-rich phosphoprotein derived from human saliva, 150 residues; sequence shown in the diagram (protein, UniProt P02810 17-166, looked up)", "Salivary acidic proline-rich …": "QDLDEDVSQEDVPLVISDGGDSEQFIDEERQGPPLGGQQSQPSAGDGNQNDGPQQGPPQQGGQQQQGPPPPQGKPQGPPQQGGHPPPPQGRPQGPPQQGGHPRPPRGRPQGPPQQGGHQQGPPPPPPGKPQGPPPQGGRPQGPPQGQSPQ"}}, "assay_in_all_cases": "Adhesion of radioactively labeled bacteria to treated hydroxyapatite (HA)", "type_in_all_cases": "cell-based", "key": {"Streptococcus mutans": {"tested_on": "Streptococcus mutans", "settings": "HA treated with the protein/peptide, saliva-treated HA = 100%", "procedure": "(§1) PRP-1 and PRP-1(Tl) were investigated for their abilities to promote adhesion of bacteria to HA. Essentially, the method is to treat HA samples with nothing (negative control), saliva (positive control), or the respective proteins or peptides. The excess agent is removed by washing, and suspensions of radioactively labeled bacteria are added to the treated HA. After a suitable time, the excess bacteria are removed by washing and those remaining adsorbed to the HA are counted in a scintillation counter. In the table of results, bacterial adsorption to saliva-treated HA is considered to be 100%, and adsorption to PRP-1 or PRP-1(Tl)-treated HA expressed as a percentage of this reference value. This approach is necessary because of the diverse behaviors of different bacteria."}, "Actinomyces viscosus": {"tested_on": "Actinomyces viscosus", "settings": "HA treated with the protein/peptide, saliva-treated HA = 100%", "procedure": "as §1"}, "Streptococcus sanguis": {"tested_on": "Streptococcus sanguis", "procedure": "as §1"}, "Bacteroides gingivalis": {"tested_on": "Bacteroides gingivalis", "procedure": "as §1"}, "Streptococcus mitis": {"tested_on": "Streptococcus mitis", "settings": "HA treated with the protein/peptide, saliva-treated HA = 100%", "procedure": "as §1"}}}
{"molecule": "B1", "values": [{"measurement": "PERCENT ADHESION COMPARED TO SALIVA-TREATED HA", "setting": "Streptococcus mutans", "value": 81, "unit": "%"}, {"measurement": "PERCENT ADHESION COMPARED TO SALIVA-TREATED HA", "setting": "Actinomyces viscosus", "value": 105, "unit": "%"}, {"measurement": "adhesion of organism to treated HA (in words)", "setting": "Streptococcus sanguis; S. sanguis, versus saliva-treated HA", "value": "higher than adhesion to saliva-treated HA"}, {"measurement": "PERCENT ADHESION COMPARED TO SALIVA-TREATED HA", "setting": "Streptococcus sanguis; Streptococcus sanguis, HA treated with the protein/peptide, saliva-treated HA = 100%", "value": 144, "unit": "%"}, {"measurement": "adhesion of organism to treated HA (in words)", "setting": "Bacteroides gingivalis; B. gingivalis, versus saliva-treated HA", "value": "higher than adhesion to saliva-treated HA"}, {"measurement": "PERCENT ADHESION COMPARED TO SALIVA-TREATED HA", "setting": "Bacteroides gingivalis; Bacteroides gingivalis, HA treated with the protein/peptide, saliva-treated HA = 100%", "value": 335, "unit": "%"}, {"measurement": "PERCENT ADHESION COMPARED TO SALIVA-TREATED HA", "setting": "Streptococcus mitis", "value": 38, "unit": "%"}]}
